# In US6852907:
# Target: T1, BV1 movement protein, untagged (tomato leaf curl virus (New Delhi)) (UniProt A0A143TU21)
# T1 sequence: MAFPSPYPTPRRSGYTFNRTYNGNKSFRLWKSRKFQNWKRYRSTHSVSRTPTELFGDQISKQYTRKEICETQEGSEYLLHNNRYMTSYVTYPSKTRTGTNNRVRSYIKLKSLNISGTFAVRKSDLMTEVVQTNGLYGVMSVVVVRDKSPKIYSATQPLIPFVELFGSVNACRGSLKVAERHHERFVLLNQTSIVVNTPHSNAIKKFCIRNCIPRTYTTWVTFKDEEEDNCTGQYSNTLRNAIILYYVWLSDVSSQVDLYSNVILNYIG
# Assay: cell_activity
# Conditions: ssDNA accumulation in BY2 protoplasts (indirect), range 50-121
substance,measurement,value
ToLCV-Nde A component viral ssDNA (CP-replacement constructs),binding signal (% of wild type ssDNA),86
